Measurements: publication PMC9628480, “Discovery and structural characterization of chicoric acid as a SARS-CoV-2 nucleocapsid protein ligand and RNA binding disruptor”

Biological target: SARS-CoV-2 nucleocapsid (N) protein, full-length (SARS-CoV-2 (protein amplified from …, UniProt A0A6B9VLF5 1-419))
Assay: fluorescence polarization
Conditions: protein: recombinant; tags: 6xHis (pET28a-TEV), not cleaved; chain copies: 2; label: 5'-FITC; hairpin

## CACUCACUGUCAAAAAAGAUGGUAGAGU (structured_RNA) [RNA2 (UUUUUU to AAAAAA)]
  Kd: 498 ± 43.2 nM
